Test results: a protein production outcome set (Wang et al. 2014)

Experiment: label from the status in PepcDB records
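Further: failed if final PepcDB status was selected cloned or expressed and not failed if soluble or beyond.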

Sequence | protein production
MKFVKIALIIAVIALVLFAAKQTGVLEIITDIKSLQEWIAGFGAWGYIVFVAAFVFACVFLLPGSAFTIVAGIVFGPIKGGVLALFSATLGAVVAFIVARFLLRNTIMKKFGDNPIFKKIDDGVAKNGTSFLILTRLVPVFPFSLQNYAYGLTGLNLSTYALVSLITMAPGAFIFAYMAGDIATNGVSAMLLVKFAVAGLILFGMSLIPKYIAKKKGINMEELAK | not failed
MSIEIWITIIVFFLTMIVIFWRPRGLNEAWPAAIGAGIILITGLVSKPDVIDIVSKIGGASITILATIVMAVILESFGFFHWSAAKLANLAKGSGRRLYWYIQLLCFLMTLLFNNDGSILITTPILILLLKNLQLKPHQQIPYLLSGALIATASSAPIGESNIVNLIALNIVNMTLYMHTAMMFVPATLGLLFMSWLMYSVLKKKLPKKLPVSSYDIEEIFFTKNFHPLKGNNSVDTKQKRTRFMLKVLGFVFLMRCLLFVASFLSIPIEIVAVLGSLVLLIWRWYYLRTNPVDILKKTPWHILIFAFSMYVIIYGLHNAGLTAALVQWLEPIVNQHLLYASFAMGGLVSILSNVFNNHPALMIGTITLTEMGLDPVTLKTIYLANIIGSDIGSLLLPIGTLASLIWMYILKQNKIKVKWKDYLSVSLIVIPLTTVVTLFLLFYWVHLFFAL | failed
MMQSRRVQESLVGLVILAGLATLGVGLLWLRGNLAGANSYTLEVELDTAPGLAVGTQVRYRGVQVGRVTAIGFDANGVQVSVRINNVLIPRRAVPEIRQSGFIGQAFLDFTPKERVPEIPEGVTAFAPKCQPELVYCNGDRVTGVRTASLEDLVRAATRFTTALEESGLINNANTLILGATRIVNRADQSLTKVTTALDSFNALSNQARAELRNFGIAAQAVTRAANQISEIVEVNRNTINSSLRNIDSAARELRTTLKALHPLTNQLEQGELLANLDALIKNGAEAAANLNKVSGALSSPLIMLSIAQTLDAARATFINAQKLTNDLLKLTSDPSFQSDLRRLIQILRRLLASSQDLEQQFLALHATSLGEAHEPMPAISAPTAAAKPTKEEEPEP | failed
MTILSAALLLFLILDPLGNIPVFLSVLKPLPPKRQRFVLARELLIALCVLMAFLWGGKYALELMHLRQESVAIAGGIVLFVIGIRMIFPRPEGLMGEIPDGEPFIVPLAIPLVAGPSGMAAVMLMGSNEPTRLWDWSLALMIAWIGASSILAAAPLLYKLLGHRALTAIERLMGMLLVAISVQMFLDGLGTYFKLPVSI | failed
AALAAKVRTLGPSMTRSMQRVAEAVAGDPAGCAALTVTGLAELTGTSEATVVRTARLLGYPGYRDLRLALAGLAAQQQSGRAPAITTDIAVDDPIADVVAKLAYDEQQTL | failed
MMTDEARAKLAAIPMLAGYTGPLERLGGLTNLVFRAGDLCLRIPGKGTEEYINRANEAVAAREAAKAGVSPEVLHVDPATGVMVTRYIAGAQTMSPEKFKTRPGSPARAGEAFRKLHGSGAVFPFRFELFAMIDDYLKVLSTKNVTLPAGYHDVVREAGGVRSALAAHPLPLAACHCDPLCENFLDTGERMWIVDWEYSGMNDPLWDLGDLSVEGKFNANQDEELMRAYFGGEARPAERGRVVIYKAMCDLLWTLWGLIQLANDNPVDDFRAYADGRFARCKALMETPEFSRHLAAVRMG | not failed
MDTRFCSSLLIKNLNTFPASNKEIMNVTVSEAERNAGDERPDLQACAEAYAIVNSAFTKAVTFFKQAYYSKIVNIEKKVSMAVDICKTDFNVLGYQINPLIEKNRQTKILLSMEQIVSHMVSS | failed
MAKAIVSIFVVFFIFFLVISDVPEIEAQGNECLKEYGGDVGFGFCAPRIFPTICYTRCRENKGAKGGRCRWGQGSNVKCLCDFCDDTPQ | not failed
MGNLSLGELELTVLYDEERYDIVEQTETVQVDLEGPRGVLTVFRFARPSYEVFVDLTEAGEGSHTVDVEHRGFPGDLAVTVEPRLEHHHHHH | failed
MKLIRVTLFLCALAILLLVTPTSSLQLKHPYSSPSQGLSKKIVTKMATRKLMIISSEYVMTSTSHEGSSEQLRVTSSGKSKDEEKKLSEEEEEKKALAKYLSMDYRTFRRRRPVHNKALPLDP | failed
MIVRMRSCAQAAKVAEATGGVQLAGKPKPDGTPTFSRYVEIGVDFEAHRPVVESVSVLFELYDGDANSYAATGGPGAQLPSGWMVTAAKFEVEWPADPQRAGLVRSHFGARRKAFNWGLAQVKADLDAKAADPAHESVDWDLKSLRWAWNRAKDDVAPWWAENSKECYSSGLADLAQGLANWKAGKNGTRKGRRVGFPRFKSGRRDPGRVRFTTGTMRIEDDRRTITVPVIGPLRAKENTRRVQRHLVSGRAQILNMTLSQRWGRLFVAVCYALRTPTTRSPLTQPTVRAGMDLGVRTLATVATLDTATGEQTIIEYPNPAPLKATLVARRRAGRELSRRIPGSHGHRAVKAKLARLDRRCVHLRREAAHQLTTELAGTYGQVVIEDLDVAAMKRSMRRRAFRRSVSDAAMGLVAPQLAYKTAKCSGVLTVADRWFASSQIHHGCTSPDGTPCRLQGKGRIDKHLLCPVTGEVVDRDRNAALNLRDWPDNASRGPVGTTAPSAPGPTTTVGTGHGADTGSSGAGGASVRPRPRRAGRGEAKTQTPQGDAA | failed
MEMKKMKKMDKMELLKQIMAVDFTIIDLSLYLNTHPMDKEAIAKHNAFVAQSHMLKGQYQKYYGMLTATNSCSPYPWQWIKEPWPWEYDANFRL | failed
MMDRDDDGYAERVAFYDTVYEQPERALDLAWLRRWLPPQFFGRRVLELACGSGYWTQYLAPAARAYQALDVSAGALALAGQRPGVGGVAFAVGEVETLPRPAQPFDAVFAGLWFSHLPRQRREGALAALHGCLAPGATVILLDNSEAQGGQFPVVEYDSEGNGYQSRPRHDGGQSRVLKNFPTEAEFRILLAPYGAAEIALMRREHFWLLRYRLPSRH | failed
MINMKPQYYLGMMSGTSLDGVDIVLVDFSQDPQLILSDFFPMPEDLREKLTTLIQVGETTLQNLGELDHKLALLYSDCVNAFLQKNTFLPNQIQAIGCHGQTVWHSPNSQFPFTMQLGDMNLLAAKTGISVIGDFRRKDMAWGGQGAPLVPAFHEAVFSNSNFATAVLNIGGISNVSILFPNQAVIGFDTGPGNTLLDQWIEKHQGLRYDENGEWAAKGNVNKVLLDELLNEPFFSLPAPKSTGRELFNLVWLNHKIAKIREKLTALSVEMSFRPEDVQATLVELTVTSIVNALNQLQTDLPKRLLVCGGGAKNSLIMRGLHDNLLDWQVSTTTEQGFDIDYVEAAAFAWLAYCRINNLPANLPSVTGAKSAVSLGAIFPKD | failed
MAKTDARSPRTERGTIALQDASQDIWDKKYRLKSKDGTPVDASVDGTWQRVARALADVEDKASREHWYGRFLWALRNGAIPAGRIISNAGALGHKPATSTINCTVSGTIQDSMDNILEKVHEAGLTLKAGCGIGYEFSTLRPRGAYVSGAGAYTSGPLSFMDIYDKMCFTVSSAGGRRGAQMGTFDVSHPDVREFIRAKREDGRLRQFNLSLLITDQFMQAVEQDADWPLVFPVHVKERDEIDLDDPNAVVWREWPIQDDYVQRADGLVACKVYGQVRARHLWDMIMVSTYDYAEPGFILIDRVNELNNNWWCEAIRATNPCGEQPLPPYGSCLLGSVNLTCFVEQPFGDEARFDWDRFREVVRVFTRMLDNVVEINGLPLEQQRQEILGKRRHGMGFLGLGSTLTLLKLRYGSPEACVFTEEVAREMALVGWEVALELAREKGPAPILAQDYEVTAEMLRKRPEMAADGYKAGDRIRGSVLHAKYSRYMQRVAEHAPELIEALAETGARFTHHSSIAPTGTISLSLANNASNGIEPSFAHHYSRNLIREGRKTKEKVEVYSYELLAYRTLVNAQALPDSDDPARRLPDYFITADSVTPAQHMDIQAAAQKWVDSSISKTANVPTDYPFEDFKDIYRYAWHQGLKGCTTFRFNPEAFQGVLVKESDLEKTRYRFELEDGSVVEFKGNEQVEYDGEIHTAANLFDALKEGYYGK | failed
MKKKLVIILSIICIIAGGYFTMEYLKHKEKEEFFWKTQETRVEKYIHYNVKDVKSITFIEHKISPMGIPSIEGYINDDKDLWFDASISTTENFEDKFSRSGELGKLIKDPEKSVSEIEKEEKEKKKELEHHHHHH | not failed
MNQHLSISPSVSRPVWHQAIPLLLLEAALVLTWSSGFIGARFSLDYAPPLLVVFWRCVVVTLLLLPFVARQLVTLPPTLLLKNTGIGLLAMTGYVAGVTQGIALGVPAGLAALFADLLPMGMALLAALVLGQRLVWQIWAGLVVGLIGVVLVTHSALEWGNAPLWAYGLPLLGMFSLAIATLWQKHSTTSQPMKLLPNLWLQYFISSFAFAIIQGTQGGLAPIASSGFALSVAWTVGLATLGGYGLYWVCLRRAKATRVASVLYLSPPVTMLWAWAMFDEPLSWQIALGMVVSGVGVWMVIRAEARQVAS | failed
MTRPERAPLSASARIEVPFHDVDAMAVCWHGHYLKYFEIGRAALLRAFDYDYPEMRASGYLWPVVEAHLKYIRPATYGQRIEVRATLIEYENRLKIGYEIADCASGQRLTKGHTIQVAVCAATSELQFVSPAVVFEKVERAWADLEHHHHHH | failed
MLRVVEVCWRESHMKVLAINSSPRMDKGNTALILNPFLEGMKEAGAEVELFYTKKLKISPCTGEFNCWLKTPGKCYQNDDMNILYPRIDAADVIVFATPVYVDGVTGQMKNFIDRMLPRVEPFVELRDGHCRHPVRGGPKALKFVLVSNCGFWEMDNFDSLLVFMKAFCKNASTEFAGALLRPHGEALSSMLEMGAPIDDVFEAAREVGRQLVKEGKMSQETLDIVSRELLPKEMYIQIANQTFRQCLESLDRLEHHHHHH | failed
MPVAKKYFEIRWHGRAGQGAKSASQMLAEAALEAGKYVQAFPEYGAERTGAPMRAFNRIGDEYIRVRSAVENPDVVVVIDETLLSPAIVEGLSEDGILLVNTVKDFEFVRKKTGFNGKICVVDATDIALQEIKRGIPNTPMLGALVRVTGIVPLEAIEKRIEKMFGKKFPQEVIDANKRALRRGYEEVKCSE | not failed
MKSHAEVVKTRHHEYSLVFPVIALVVLYIWGNSQDFIAILGINAVALAGILFSAFSVVRHADVLAHRLGEPYGSLILSLSVVILEVSLISALMATGDAGPDLMRDTLYSIIVIVTGGLVGFALLLGGRKFATQYVNLSGIKQYLMAIFPLAVIVLVFPSALPDGNFSVTQSLIVAAISAAMYGVFLLIQTRTHQSLFVYEHEDEGDGDDPHHGKPSAHSSLWHTGWLLVHLIAVIAVTKTNSMPLETLLTEMNAPTQFTGFLVALLILSPEGLGAIRAVLKNQVQRAMNLFFGSVLATISLTVPTVTIIAMITGRTLNFGLDMPHIVVMLSVLVLCHITFSTGRTNVLSGSAHLALFAAYLITITL | failed
MSGPSTYQPQSPLMKWLEQRLPIAGLVHSSFIAYPTPRNLNYWWTFGAILSMMLAVQIVTGIVLAMHYTPHVDLAFDSVERIVRDVNYGWLLRNMHAAGASMFFIAVYVHMLRGLYYGSYKAPREVLWILGVIIYLLMMATGFMGYVLPWGQMSFWGATVITNLFSAFPIVGDSIVTLLWGGYSVGNPTLNRFFSLHYLLPFVIAGVVVLHVWALHVTGQNNPAGVEPKTEKDTVPFTPYATLKDVFGMSCFLVFYSWFIFYMPNYLGDAENYVPANPGVTPPHIVPEWYYLPFYAILRSIPNKLMGVIAMFGAIIVLLFLPWLDSCKVRSSRYRPMAKRFFWAFVVTCLVLGWLGSKPAEGIYTTLGQVFTFFYFAYFLIVLPVLGRMEKTLPLPNSIAEDVLNKGKVAKAVAGLVAVLFAGGLMVGGVQPAKANEGGENPPSLQWSFAGPFGTYDRAQLQRGFKIYKEVCSNCHSLKLLQYRNLAEPGGPGFTVEQAKEIAAAAQIKDGPNDQGEMFERPGRLADTFHSPFPNEQAARAANGGAAPPDMSLLAKARTYPRGFPQFIFDFFTQFQEQGPNYIAALLQGYEDTPPEGFSLPDGSFYNKWYPGHSIKMPPPIQAGMVSYDDGTPETLEQYAKDISTFLVWASEPHMEARKRLGLQVMIFLVILSSLLYFVKRKVWSNVH | failed
